Test results as given in patent publication US20230414712A1, “PHARMACEUTICAL COMPOSITION FOR PREVENTING OR TREATING CANCER COMPRISING RECOMBINANT STABILIZED GALECTIN 9 PROTEIN” (GBIOLOGICS INC., priority 2020, published 2023).

Key:
[1] = test system: KRAS wild-type or mutant colorectal, pancreatic, lung cancer and ovarian cancer cells (HT-29, DLD-1, HCT-116, SW620, Bx-pc3, L3.6pl, AsPC-1, H226, A549 …); experiment: SRB (sulforhodamine B) cell growth assay in cancer cell lines; format: cell-based; settings: 3.2, 16, 80, 400, 2000 or 10,000 nM, 72 hours; compared to negative control NIH3T3 cells; FIG. 1A
Description: To investigate the anticancer activity of the recombinant stabilized galectin-9 protein having the amino acid sequence of SEQ ID NO: 1, cell growth and apoptosis were observed after treatment of the recombinant protein in cancer cell lines having a KRAS wild type or KRAS gene mutation.
Specifically, to investigate the anticancer activity of the recombinant stabilized galectin-9 protein having the amino acid sequence of SEQ ID NO: 1, the protein was treated on cancer cell lines with KRAS wild-type or KRAS gene mutation, and the following cell lines were used: HT-29 for KRAS wild-type pancreatic cancer, DLD-1, HCT-116, and SW620 for KRAS gene-mutated colon cancer, Bx-pc3 for KRAS wild-type pancreatic cancer, L3.6pl and AsPC-1 for KRAS gene-mutated pancreatic cancer, H226 for KRAS wild-type lung cancer, A549 for KRAS gene-mutated lung cancer, SKOV3ip1 for KRAS wild-type ovarian cancer, and SKOV3 for KRAS gene-mutated ovarian cancer, and the cells were seeded at 5×10^3 cells per well in a 96-well plate and cultured at 37° C. for one day, and then the recombinant protein was treated with concentrations of 3.2, 16, 80, 400, 2000, or 10,000 nM per well, and cultured for 72 hours. After 72 hours of incubation, the cell growth was confirmed using the SRB (sulforhodamine B) assay kit (Abcam, US) according to the manufacturer's instructions. […]

DLD-1 cells [2] = experiment: Annexin-APC and 7-AAD apoptosis analysis by flow cytometer; format: cell-based; settings: 1,000 nM, 24 or 48 hours; FIG. 1B
Description: In addition, DLD-1 cells, a colorectal cancer cell line with KRAS gene mutation, were seeded at a density of 1×10^5 cells per well in a 6-well plates, cultured for 1 day at 37° C. and the recombinant protein from <Preparation Example 1> was then added to each well at a concentration of 1,000 nM, and the cells were further cultured for either 24 or 48 hours. After washing the cultured cells twice with cold PBD, the cells were stained using Annexin-APC and 7-AAD apoptosis kit (Biolegend, US) according to the manufacturer's instructions, and apoptosis was analyzed using a flow cytometer (CytoFLEX, Beckmancoulter) (FIG. 1B).

DLD-1 cells [3] = experiment: colony formation assay; format: cell-based; settings: 0, 50, 100, 250, 500, 1000 nM, 10 days, 3% v/v Matrigel; FIG. 2
Description: To investigate the anti-cancer activity of the recombinant stabilized galectin-9 protein having the amino acid sequence of SEQ ID NO: 1, the proliferation of cancer cells by colony formation assay was analyzed by treating KRAS mutant colorectal cancer cell lines with the recombinant protein.
Specifically, DLD-1 cells, a colorectal cancer cell line with KRAS gene mutation, were seeded in 6-well plates at 5×10^3 cells per well in a medium containing 3% v/v Matrigel, and then treated with the recombinant protein from <Preparation Example 1> at concentrations of 0, 50, 100, 250, 500, 1000 nM and incubated for 10 days. Then, after washing with phosphate-buffered saline, colonies were stained with a solution of 0.05% crystal violet, 1% formaldehyde, and 1% methanol in phosphate-buffered saline for 20 minutes at room temperature. The plate was then washing with distilled water and dried at room temperature for 16 hours. The number of colonies was measured by capturing images of the stained and dried plates and analyzing the images (FIG. 2).

[4] = body weight changes in pancreatic cancer-induced mouse model; format: in vivo, mice; settings: intraperitoneal, 50 days, FIG. 4
Description: (§1) To investigate the anticancer activity of the recombinant stabilized galectin-9 protein having the amino acid sequence SEQ ID NO: 1, KRAS gene mutant pancreatic cancer cell line MIA PaCa-2 cells were transplanted and grown for two weeks to form pancreatic tumor tissue subcutaneously in mice, and the mice were then administered with the recombinant protein, and changes in body weight were monitored.
(§2) Specifically, the experiments were conducted in accordance with the Guide for the Care and Use of Laboratory Animals (NRC), and the mice were managed accordingly. After collecting mice with an average pancreatic cancer size of 200 nm 3, they were randomly classified into 5 group.
(§3) The experimental groups were classified into five groups (5 mice per group) as follows: control group (PBS), low-dose recombinant stabilized galectin-9 protein administration group (seal-9 0.5 mg/kg), high-dose recombinant stabilized galectin-9 protein administration group (seal-9 5 mg/kg), gemcitabine group (Gemcitabine 50 mg/kg), and combination of seal-9 and gemcitabine (seal-9 5 mg/kg+Gemcitabine 50 mg/kg). The mice were administered with seal-9 the given concentrations twice a week and/or gemcitabine once a week by intraperitoneal injection for 50 days, while monitoring changes in body weight (FIG. 4).

[5] = test system: KRAS gene mutant pancreatic cancer (MIA PaCa-2) mouse model; experiment: pancreatic cancer tissue size (MRI) in pancreatic cancer-induced mouse model; format: in vivo, mice; settings: 50 days, FIG. 5; for size of pancreatic cancer tissue compared to the control group: intraperitoneal
Description: as §1, §2, §3
To investigate the anticancer activity of the recombinant stabilized galectin-9 protein having the amino acid sequence of SEQ ID NO: 1, the KRAS gene mutant pancreatic cancer (MIA PaCa-2) mouse model was established by using the same method described in Example <2-1> above, and seal-9 and/or gemcitabine were administered into the mice for 50 days and the change in the size of the pancreatic cancer tissue was evaluated using magnetic resonance imaging (MRI) (FIG. 5).

[6] = test system: KRAS gene mutated pancreatic cancer (MIA PaCa-2) mouse model; experiment: survival rate in pancreatic cancer-induced mouse model; format: in vivo, mice; settings: 50 days, tumor size of 1700 mm3 or more considered as time of death, FIG. 6
Description: as §1, §2, §3
In this case, a pancreatic cancer tissue size of 1700 mm3 or more was considered as the time of death.

[7] = high-dose, seal-9 5 mg/kg twice a week
[8] = low-dose, seal-9 0.5 mg/kg twice a week

B1: seal-9: recombinant stabilized galectin-9 protein of SEQ ID NO: 1; linker region deleted, CCRD positions 1 to 10 deleted, Ala at position 13 substituted with Pro (protein)
chain: MAFSGSQAPYLSPAVPFSGTIQGGLQDGLQITVNGTVLSSSGTRFAVNFQTGFSGNDIAFHFNPRFEDGGYVVCNTRQNGSWGPEERKTHMPFQKGMPFDLCFLVQSSDFKVMVNGILFVQYFHRVPFHRVDTISVNGSVQLSYISFQHPPYPMPFITTILGGLYPSKSILLSGTVLPSAQRFHINLCSGNHIAFHLNPRFDENAVVRNTQIDNSWGSEERSLPRKMPFVRGQSFSVWILCEAHCLKVAVDGQHLFEYYHRLRNLPTINRLEVGGDIQLTHVQT
modifications: sGal-9
notes: linker region deleted, CCRD positions 1 to 10 deleted, Ala at position 13 substituted with Pro
cell growth [1]: inhibited cell growth
apoptosis (DLD-1 cells [2]): induced apoptosis
colony formation ability / proliferation of cancer cells (DLD-1 cells [3]): inhibited the proliferation of cancer cells in a concentration-dependent manner
changes in body weight [4, 7]: no significant changes in body weight
changes in body weight [4, 8]: no significant changes in body weight
size of pancreatic cancer tissue compared to the control group [5, 7]: decreased significantly
size of pancreatic cancer tissue compared to the control group [5, 8]: decreased significantly
size of pancreatic cancer tissue, seal-9 compared with conventional chemotherapy ([5]; seal-9 0.5 or 5 mg/kg vs gemcitabine 50 mg/kg): superior effect at lower doses than conventional chemotherapy
survival rate ([6]; high-dose, seal-9 5 mg/kg): superior survival rates
survival rate ([6]; low-dose, seal-9 0.5 mg/kg): superior survival rates
